In the supplement of paper PMC7877785:
± gives the uncertainty stated by the source.

Test: self-splicing fitness, log relative to wild type (ln ratio); higher = more splicing; Tetrahymena group I intron in knt gene, E. coli kanamycin selection, DiMSum; sequences stand for … in CUCUCU…GGAGGGAAAAGUUAUCAGGCAUGCACCUGGUAGCUAGUCUUUAAACCAAUAGAUUGCAUCGGUUUAAAAGGCAAGACCGUCAAAUUGCGGGAAAGGGGUCAACAGCCGUUCAGUACCAAGUCUCAGGGGAAACUUUGAGAUGGCCUUGCAAAGGGUAUGGUAAUAAGCUGACGGACAUGGUCCUAACCACGCAGCCAAGUCCUAAGUCAACAGAUCUUCUGUUGAUAUGGAUGCAGUUCACAGACUAAAUGUCGGUCGGGGAAGAUGUAUUCUUCUCAUAAGAUAUAGUCGGACCUCUCCUUAAUGGGAGCUAGCGGAUGAAGUGAUGCAACACUGGAGCCGCUGGGAACUAAUUUGUAUGCGAAAGUAUAUUGAUUAGUUUUGGAGUACUCGUGGUCG
Summary of the method: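 Colonies from six replicate transformations of E. coli BL21(DE3) were pooled and amplicon-sequenced on an Illumina HiSeq 2500. The library placed an intron with all eight P1ex-region nucleotides randomised inside the knt kanamycin-resistance gene on pET-22b(+), and cells grew overnight at 37°C or 30°C on LB agar with or without 25 μg/mL kanamycin (plus 100 μg/mL carbenicillin, 50 μM IPTG, 0.2% rhamnose). Fitness is the DiMSum error-weighted combination of wild-type-normalised replicate fold changes, kanamycin versus none.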

| Sequence | self-splicing fitness (ln) (30 °C) | self-splicing fitness (ln) (37 °C) |
| --- | --- | --- |
| UAGCAGCAAUAUUACGAUCU | -1.92 ± 0.081 | -1.08 ± 0.077 |
| UGCUAGCAAUAUUACGUUCU | -0.686 ± 0.092 | -0.861 ± 0.12 |
| GCGCAGCAAUAUUACGGUGG | -1.74 ± 0.059 | -0.842 ± 0.08 |
| AGCUAGCAAUAUUACGGACC | -0.63 ± 0.12 | -0.00494 ± 0.17 |
| AUCAAGCAAUAUUACGACAC | -1.45 ± 0.079 | -0.324 ± 0.11 |
| GUCCAGCAAUAUUACGCUGA | -0.534 ± 0.092 | -0.466 ± 0.13 |
| GCCCAGCAAUAUUACGAAAG | -2.48 ± 0.12 | -2.07 ± 0.19 |
| UUCCAGCAAUAUUACGUAGC | -3.54 ± 0.17 | -1.51 ± 0.2 |
| GUUAAGCAAUAUUACGUGCC | -1.39 ± 0.25 | -0.253 ± 0.36 |
| CCCCAGCAAUAUUACGUAGA | -2.95 ± 0.12 | -2.7 ± 0.18 |
| GCUCAGCAAUAUUACGAAAG | -1.71 ± 0.11 | -1.93 ± 0.13 |
| GCCCAGCAAUAUUACGUUCA | -2.45 ± 0.16 | -0.504 ± 0.11 |
| GACUAGCAAUAUUACGUUCC | -3.69 ± 0.3 | -2.17 ± 0.23 |
| GCUCAGCAAUAUUACGUCAA | -1.84 ± 0.16 | -1.77 ± 0.22 |
| GACAAGCAAUAUUACGAGAG | -3.18 ± 0.17 | -2.96 ± 0.21 |
| AAUCAGCAAUAUUACGGUUA | -0.439 ± 0.08 | -0.408 ± 0.066 |
| CGCGAGCAAUAUUACGAAAU |  | -2.57 ± 0.27 |
| CUUAAGCAAUAUUACGCGAC | -1.83 ± 0.16 | -0.508 ± 0.23 |
| AGUCAGCAAUAUUACGGGGG | -3.61 ± 0.21 | -2.6 ± 0.22 |
| UAAGAGCAAUAUUACGUAGU | -3.21 ± 0.19 | -2.32 ± 0.26 |
| CCCAAGCAAUAUUACGCGGC | -2.8 ± 0.2 | -2.38 ± 0.23 |

| Sequence | self-splicing fitness (ln) (30 °C) | self-splicing fitness (ln) (37 °C) |
| --- | --- | --- |
| AAAAAGCAAUAUUACGUAAC | -2.45 ± 0.13 | -1.12 ± 0.13 |
| CAUAAGCAAUAUUACGCUUA | -3.59 ± 0.29 | -2.65 ± 0.26 |
| CGGGAGCAAUAUUACGUCGG | -2.52 ± 0.14 | -1.66 ± 0.15 |
| GAAGAGCAAUAUUACGUGAA | -2.94 ± 0.15 | -2.03 ± 0.17 |
| ACGUAGCAAUAUUACGAAGC |  | -1.96 ± 0.41 |
| GCCUAGCAAUAUUACGUUUG | -2.89 ± 0.21 | -0.761 ± 0.13 |
| UUUGAGCAAUAUUACGUUAG |  | -1.73 ± 0.35 |
| ACAGAGCAAUAUUACGAUCC | -3.76 ± 0.39 | -1.5 ± 0.34 |
| UCCCAGCAAUAUUACGAGUU | -3.85 ± 0.2 | -2.45 ± 0.15 |
| GAGCAGCAAUAUUACGAUGU | -3.19 ± 0.15 | -1.37 ± 0.11 |
| GAGUAGCAAUAUUACGUCCU | 0.0223 ± 0.087 | 0.18 ± 0.15 |
| GGCUAGCAAUAUUACGAAGG |  | -0.668 ± 0.29 |
| AUGCAGCAAUAUUACGAGAA | -3.47 ± 0.32 | -2.64 ± 0.34 |
| AGCAAGCAAUAUUACGGGUC | -2.05 ± 0.22 | -1.82 ± 0.21 |
| UUUUAGCAAUAUUACGGCUA | -2.21 ± 0.44 | -0.365 ± 0.31 |
| AAGAAGCAAUAUUACGUCCC | -1.06 ± 0.16 | 0.89 ± 0.21 |
| GAGUAGCAAUAUUACGAUCU | -1.59 ± 0.18 | -0.479 ± 0.16 |
| UAUAAGCAAUAUUACGGGUA | -0.177 ± 0.1 | 0.401 ± 0.12 |
| AAGCAGCAAUAUUACGAUUU | 0.17 ± 0.061 | 0.619 ± 0.079 |
| UCAAAGCAAUAUUACGGAUG | -2.78 ± 0.08 | -1.32 ± 0.086 |
| AAGGAGCAAUAUUACGGCUA | -1.92 ± 0.12 | -0.126 ± 0.13 |

| Sequence | self-splicing fitness (ln) (30 °C) | self-splicing fitness (ln) (37 °C) |
| --- | --- | --- |
| UAUAAGCAAUAUUACGAUAA | -1.17 ± 0.12 | -0.947 ± 0.12 |
| GCGAAGCAAUAUUACGGUUU | -3.22 ± 0.13 | -1.62 ± 0.13 |
| ACAGAGCAAUAUUACGGUGC | -3.86 ± 0.44 | -2.09 ± 0.31 |
| AGCAAGCAAUAUUACGCGCU |  | -2.2 ± 0.32 |
| AGUAAGCAAUAUUACGAAAG | -4.26 ± 0.37 |  |
| UAACAGCAAUAUUACGGGCU | -4.01 ± 0.21 | -2.3 ± 0.16 |
| UAAAAGCAAUAUUACGUCGA | -1.39 ± 0.1 | -0.424 ± 0.12 |
| CAGUAGCAAUAUUACGAUAG | 0.00229 ± 0.079 | 0.167 ± 0.097 |
| GCAGAGCAAUAUUACGGCUA | -1.53 ± 0.14 | -0.385 ± 0.11 |
| UGCGAGCAAUAUUACGGCGC | -2.34 ± 0.46 |  |
| ACCUAGCAAUAUUACGGUGA | -1.86 ± 0.079 | -0.814 ± 0.074 |
| AGAAAGCAAUAUUACGGGGC | -4.36 ± 0.3 | -2.05 ± 0.21 |
| GAUUAGCAAUAUUACGGGUU | -2.59 ± 0.16 | -1.14 ± 0.15 |
| CACUAGCAAUAUUACGACCA | -1.18 ± 0.14 | -1.69 ± 0.21 |
| UCUCAGCAAUAUUACGGGGA | -2.92 ± 0.21 | -1.98 ± 0.22 |
| CAGGAGCAAUAUUACGGCGU | -3.11 ± 0.2 | -2.84 ± 0.28 |
| UCGUAGCAAUAUUACGGCUC |  | -1.44 ± 0.24 |
| UUGUAGCAAUAUUACGGAGG | -3.76 ± 0.42 | -1.87 ± 0.35 |
| AAUGAGCAAUAUUACGUUGA | -3.71 ± 0.24 | -2.25 ± 0.17 |
| CAGUAGCAAUAUUACGUUGA |  | -2.14 ± 0.16 |
| CUAUAGCAAUAUUACGCGCG | -0.981 ± 0.2 | 0.458 ± 0.25 |
